No end group written: not given here.

We go through 8 molecules from patent publication US20250250297A1, “CO-ASSEMBLED PEPTIDE GRANULES FOR INTRACELLULAR PROTEIN DELIVERY” (University of Florida Research Foundation, Incorporated, priority 2022, published 2025).

Sequences and labels used below:
T1: mCATCH(-) peptide, Ac-EQEPEPEPEQE-Am
T1 construct: Proline residues replace the phenylalanine residues of CATCH(-); also called mutant of CATCH(-)
T1 peptide: Ac-EQEPEPEPEQE-NH2

B1: CATCH(-) peptide, Ac-EQEFEFEFEQE-Am (peptide)
peptide: Ac-EQEFEFEFEQE-NH2
notes: Synthetic anionic variant of Q11; also called CATCH(6-); CATCH (6-)
B2: mCATCH(+) peptide, Ac-QQKPKPKPKQQ-Am (peptide)
peptide: Ac-QQKPKPKPKQQ-NH2
notes: Proline residues replace the phenylalanine residues of CATCH(+); also called mutant of CATCH(+)
B3: CATCH(+) peptide, Ac-QQKFKFKFKQQ-Am (peptide)
peptide: Ac-QQKFKFKFKQQ-NH2
notes: Synthetic cationic variant of Q11; also called CATCH(4+); CATCH (4+)

For data set [1] the following is noted: aqueous media; cited from earlier work.
Data set [2] is described as follows: Protein incorporation into macroscopic hydrogels (GFP retention under excess 1×PBS). Format: physicochemical. The protocol:
Macroscopic Hydrogel Formation. A 12 mM stock solution of CATCH(−) was prepared by dissolving dry peptide in 1×PBS and adjusting the pH to ˜7.6 with ammonium bicarbonate (Fisher). A 12 mM stock solution of CATCH(+) was prepared by dissolving dry peptide in 1×PBS and adjusting the pH to ˜7.2 with hydrochloric acid (0.5 N Fisher). CATCH peptide stock solutions were combined at a 1:1 (v/v) ratio in a 0.2 mL glass vial (Thermo), and the vial was gently swirled for 2 min until the hydrogel formed. The hydrogel was stained with red food coloring to aid visualization. Hydrogel images were recorded using a digital still camera.
Protein Incorporation into Macroscopic Hydrogels. […] Immediately after hydrogel formation, fluorescence was visualized by placing the glass vials on a SafeImager 2.0 transilluminator (Invitrogen) and recording images with a digital still camera. […] At various time points, fluorescence in the buffer supernatant was visualized by placing the glass vials on a SafeImager 2.0 transilluminator (Invitrogen) and recording images with a digital still camera. At the endpoint, buffer supernatant was carefully removed by decanting and fluorescence was visualized by placing the glass vials on a SafeImager 2.0 transilluminator (Invitrogen) and recording images with a digital still camera.

The next data set has as its system cells. The experiment in a line: Delivery of granules comprising three co-assembling peptides; FACS sorting and NanoLuciferase activity. The note with it: for delivery into cells via granules of three co-assembling peptides: granules with CATCH(6+) and two distinct CATCH(6−) fusion peptides. The format is cell-based. As for the experimental part: Therein, the ability of cells to take up granules comprising three co-assembling peptides (e.g., a CATCH(6+) and two distinct CATCH(6−) fusion peptides comprising different fluorescent or colorimetric markers) was tested. […] Subsequent fluorescent-activated cell sorting (FACS) procedures were used to sort GFP-positive cells.

In a further data set the test system is cells in vitro. Kind of data set: Granule uptake compared to cell-penetrating peptide (L17E and Pep-1) uptake; CATCH(6+) titration; cell count. Format: cell-based.
Data set [3] can be described thus: Granule formation with molar excess of positive peptide: effect of concentration, ion content and pH. Format: physicochemical. The note with it: molar excess of CATCH(6+) relative to CATCH(6−)-GFP. The protocol: This example describes the effect on granule formation of using positive peptides in molar excess relative to negative peptides. Samples comprising molar excess of positive peptide (e.g., CATCH(6+)) relative to negative peptide (e.g., CATCH(6−)-GFP) were prepared and granule formation was measured after peptide co-assembly (see FIG. 61). […] Therein, the effect of sample ion content on granule formation was tested. Samples comprised 2 mM CATCH(6+) or CATCH(4+) and 30 μM CATCH(6−)-GFP.

In data set [4] the target is B2. Kind of data set: ThT fluorimetry, equimolar mixture in 1x PBS. As for the experimental part: (§1) Thioflavin T (ThT) Assay. A ThT stock solution containing 0.8 mg/mL of thioflavin T (Acros) in 1× phosphate-buffered saline (PBS) (137 mM NaCl, 2.7 mM KCl, 10 mM Na₂HPO₄ and 1.8 mM KH₂PO₄, pH 7.4) was filtered through a 0.22 μm syringe filter (Millex), and further diluted 1:10 with 1×PBS to create a working solution. Peptide samples were mixed with the ThT working solution at a 1:10 (v/v) ratio, added to a black 96-well plate (Corning), and analyzed with a Molecular Devices SpectraMax M3 spectrophotometer (excitation 450, emission 482 nm). All samples were run in triplicate, with the mean and standard deviation of these samples reported.

Data set [5] deals with the molecule itself. The experiment in a line: TEM; circular dichroism also showed predominantly random coil when incubated alone. (In general: Circular dichroism is widely used to follow secondary structure.)
Data set [6] addresses T1, mCATCH(-) peptide, Ac-EQEPEPEPEQE-Am. Kind of data set: ThT fluorimetry, kinetic analysis.
Data set [7] shares this target. The experiment in a line: ThT fluorimetry, equimolar mixture in 1x PBS. As for the experimental part:
as §1

Consider “Ac-QQKFQFQFEQQ-Am (Ac-QQKFQFQFEQQ-NH2) [Q11]”, for which, in data set [1], the “concentration at which peptide self-assembles into β-sheet nanofibers” value is around 10 µM.

Take “CATCH(−)GFP: recombinant fusion of CATCH(−) and superfolder green fluorescent protein (GFP)”: the “fluorescence of CATCH hydrogels after incubation under volumetric excess of 1×PBS” value in data set [2] (48 h, hydrogel from 12 mM CATCH(+) and CATCH(−)) was “retained their fluorescence”. For the same molecule, the “GFP in the buffer layer over hydrogels” value in [2] (up to 48 h under excess 1×PBS) was “no GFP was detected”. Also, the “delivery into cells via granules of three co-assembling peptides” value (shortened to “delivery into cells via granules”) in the data set with cells is “delivered into cells”.

Regarding “CATCH(6−)-mRuby: CATCH(6−) fusion peptide with fluorescent marker mRuby (EQEFEFEFEQE; not fully specified (C-terminus); also: fusion with mRuby, not in chain)”, in the data set with cells, the “delivery into cells via granules” value is listed as “delivered into cells”.

For KQKFKFKFKQK [CATCH(6+)], the “effect of titration of peptide concentration on number of transduced cells” value in the data set on cells in vitro is reported as “enabled control on the number of transduced cells”. Moreover, in [3], the “granule size by scanning electron microscopy at higher positive peptide concentrations” value is listed as “larger granules”.

With “CATCH(6−)-NanoLuciferase: CATCH(6−) fusion with NanoLuciferase (EQEFEFEFEQE; not fully specified (C-terminus); also: fusion with NanoLuciferase, not in chain)”, the “NanoLuciferase activity in sorted GFP-positive cells” value in the data set on cells (after FACS, granules with CATCH(6−)-GFP and CATCH(6−)-NanoLuciferase) was “high levels”. Moreover, the “delivery into cells via granules” value in the data set with cells is reported as “successfully delivered into cells”.

For B1, the binding result in data set [4] and in data set [5] was “no binding” each time.

For B2, the binding result in data set [6] is “no binding”.

Take B3: the binding result in data set [7] and in [5] was “no binding” in each case.
